Reference: patent US20150132305A1 (ADHERON THERAPEUTICS, published 2015)
Substitutions are numbered along the chain they refer to. Names and notes keep the numbering of the source. No end group written: not given here.

T1: recombinant his-tagged human Cad-11 (R&D Systems) (human, UniProt P55287 54-617)
T1 construct: bought; also called rhCad-11; recombinant human Cad-11; not shown: his tag
T1 sequence: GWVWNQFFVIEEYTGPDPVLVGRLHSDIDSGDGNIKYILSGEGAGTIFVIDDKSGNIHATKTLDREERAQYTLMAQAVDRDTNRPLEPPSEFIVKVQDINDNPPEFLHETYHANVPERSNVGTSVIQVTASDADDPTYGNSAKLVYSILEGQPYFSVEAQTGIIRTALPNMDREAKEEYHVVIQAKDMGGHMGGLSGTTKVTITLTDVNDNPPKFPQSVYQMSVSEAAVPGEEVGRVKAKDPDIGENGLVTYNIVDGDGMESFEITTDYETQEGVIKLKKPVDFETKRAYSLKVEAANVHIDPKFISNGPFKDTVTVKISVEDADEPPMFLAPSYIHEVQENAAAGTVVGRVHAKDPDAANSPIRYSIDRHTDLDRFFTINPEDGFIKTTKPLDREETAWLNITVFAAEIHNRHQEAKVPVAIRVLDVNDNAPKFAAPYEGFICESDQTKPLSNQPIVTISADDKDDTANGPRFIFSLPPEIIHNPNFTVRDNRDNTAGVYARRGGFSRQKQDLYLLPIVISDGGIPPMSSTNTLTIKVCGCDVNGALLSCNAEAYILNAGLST

T2: recombinant Cad-11 EC1 human IgG1 fusion protein (R&D Systems Cat. No. 1790-CA-050) (human, UniProt P55287 54-617, limits assumed)
T2 construct: bought; also called recombinant human Cad-11 EC1; recombinant human Cad-11 fusion protein; not shown: human IgG1 part
T2 sequence: T1 sequence

B1: SDP051 humanized anti-Cad-11 EC1 antibody (Vκ1/VH5) (antibody, IgG4, V domains shown)
VH: EVQLVQSGAEVKKPGASVKVSCKASGYSFTGYFMNWVRQAPGQGLEWIGRINPYTGDTFYNQKFKGRVTITVDKSTSTAYMELSSLRSEDTAVYYCGRLGSRYWYFDVWGQGTTVTVSS
VL: DVLMTQTPLSSPVTLGQPASISCRSSQSIIHSNGNTYLEWYLQKPGQSPQLLIYKVSNRFSGVPDRFTGSGSGTDFTLKISRVEAEDVGVYYCFQGSHVPWTFGQGTKLEIK
notes: humanized IgG4 (S241P), kappa
B2: SDP071 humanized anti-Cad-11 EC1 antibody (Vκ2/VH2) (antibody, IgG4, V domains shown)
VH: B1 VH with V20I, R38K, V68A, I70L
VL: B1 VL with T68S
notes: humanized IgG4 (S241P), kappa
B3: SDP061 humanized anti-Cad-11 EC1 antibody (Vκ2/VH1) (antibody, IgG4, V domains shown)
VH: EVQLVQSGPELKKPGASVKISCKASGYSFTGYFMNWVKQAHGQGLEWIGRINPYTGDTFYNQKFKGRATLTVDKSSSTAYMELVSLSSEDSAVYYCGRLGSRYWYFDVWGQGTTVTVSS
VL: B1 VL with T68S
notes: humanized IgG4 (S241P), kappa
B4: Cad-9 37-mer peptide linked to BSA (peptide, UniProt Q9ULB4 54-90, looked up)
peptide: GWMWNQFFLLEEYTGTDTQYVGKLHTDQDKGDGNLKY
modifications: also: linked to BSA
notes: also called Cad-9 antigen; Cad-9 peptide
B5: Cad-7 37-mer peptide linked to BSA (peptide, UniProt Q9ULB5 48-84, looked up)
peptide: SWVWNQFFVLEEYMGSDPLYVGKLHSDVDKGDGSIKY
modifications: also: linked to BSA
notes: also called Cad-7 antigen; Cad-7 peptide

How the values were obtained:
[1] = biological target: T1, recombinant his-tagged human Cad-11 …; assay: SPR, rhCad-11 immobilized, SDP051 as analyte, 2-state reaction model; kd1
Description: (§1) To determine the affinity of SDP051 for recombinant his-tagged human Cad-11, rhCad-11 (R&D Systems) was immobilized to the chip at a single concentration, high resolution kinetics were determined for SDP051, and a 2-state reaction binding model was successfully fitted to the kinetic data.
(§2) Kinetic data were obtained at a flow rate of 40 μL/min to minimize any potential mass transfer effects. An analyte concentration series ranging from 12.5 nM to 0.195 nM was prepared by serial dilution. Two repeats of the blank (no mAb) and the 3.125 nM (first and last cycle) concentration of the analyte were programmed into the kinetic runs in order to check the stability of both the surface and analyte over the kinetic cycles. The SDP051 was injected over the Fcs for 360 seconds, long enough to observe the curvature in association phase.

[2] = biological target: T2, recombinant Cad-11 EC1 human IgG1 …; assay: competition ELISA against biotinylated SYN0012/H1M1 (competitor) on coated fusion protein; text says values are normalised to the IC50 of SYN0012
Description: (§3) The binding of the purified humanized composite variant antibodies (SDP011 to SDP151) to a recombinant Cad-11 EC1 human IgG1 fusion protein was assessed in a competition binding ELISA. A dilution series from 5 μg/ml to 0.0022 μg/ml of the humanized or control (SYN0012/H1M1) antibodies was premixed with a constant concentration of biotinylated murine anti-Cad-11 antibody, SYN0012/H1M1 (0.1 μg/ml, final concentration), before incubating for 1 hour at room temperature on a NUNC-IIMMUNO™ MAXISORP™ 96 well flat bottom microtitre plate (Fisher Cat. No. DIS-971-030J) pre-coated with 0.25 μg/ml recombinant human Cad-11 EC1 (R&D Systems Cat. No. 1790-CA-050) diluted in PBS. The binding of the biotinylated mAb was detected with streptavidin-HRP (Sigma Cat. No. 55512) and tetramethylbenzidine (TMB) substrate (Invitrogen Cat. No. 00-2023).
(§4) All of the humanized anti-Cad-11 antibodies efficiently competed with SYN0012 for binding to the Cad-11 fusion protein (FIGS. 38A to C). […] The curves were used to calculate IC50 values for each antibody and these were normalized to the IC50 of SYN0012, which was included on each ELISA plate so that comparisons between plates could be made (Table 3). The expression levels of each cell line and the calculated isoelectric point (pI) of each antibody are also shown (Table 3).
The relative IC50 was calculated by dividing the value for the test antibody by that of SYN0012. Antibody expression levels given are for static cultures in T flasks. PI are calculated.

[3] = biological target: T1, recombinant his-tagged human Cad-11 …; assay: SPR, rhCad-11 immobilized, SDP051 as analyte, 2-state reaction model
Description: as §1, §2

[4] = biological target: T1, recombinant his-tagged human Cad-11 …; assay: SPR, rhCad-11 immobilized, SDP051 as analyte, 2-state reaction model; ka1
Description: as §1, §2

[5] = biological target: B5; assay: ELISA, BSA-coupled 37-mer cadherin peptide coated at 500 ng/ml, A450
Description: (§5) REACTI-BIND™ plates (ThermoScientific) were coated with 500 ng/ml of the BSA coupled cadherin 37-mer peptide (NE peptide) corresponding to Cadherins-7, -8, -9, -11, -18, -20, and -24 in 0.05% TWEEN® detergent (EMD, product code 9480) in PBS (pH 7.2) (Gibco(Invitrogen), #20012) at 100 μl volume/well for overnight at 4° C. The peptide containing solution was removed from the well and the plate blocked with a 2% bovine serum albumin (BSA) in PBS, 200 μl volume/well, for 2 h at 22° C. The plate was then washed twice with 200 μl/well of PBS-TWEEN® detergent 0.05% at 22° C. and blotted dry. A dilution series from 5 μg/ml to 8 ng/ml in a volume of 100 μl/well of each the humanized anti-Cad-11 antibodies were incubated in the petide coated wells and incubated at 22° C. for 1 hr. Antibody solution was removed from the wells and the plate washed twice with 200 μl/well of 0.05% TWEEN® detergent-PBS at 22° C. and blotted dry. The goat-anti mouse IgG (Pierce #31432) was added to each well to plate at a 1:1000 dilution, 100 μl/well and incubate at 22° C. for 30 min. The secondary antibody solution was removed and the plate washed twice with 200 μl/well of 0.05% TWEEN® detergent-PBS at 22° C. and blotted dry. The reaction was developed by adding 100 μl/well tetramethylbenzidine (TMB) reagent IgG (Pierce #34022, 1 step Turbo TMB-ELISA) to plate and developed at 22° C. for 5 min.

[6] = biological target: B4; assay: as above
Description: as §5

[7] = biological target: T2, recombinant Cad-11 EC1 human IgG1 …; assay: competition ELISA on coated recombinant human Cad-11 EC1 fusion protein against biotinylated SYN0012 (0.1 µg/ml)
Description: as §3, §4

[8] = biological target: B1; assay: flow cytometry blocking assay: peptide titrated with SDP 051 at 0.5 ug/ml on Cad-11 expressing 431D cells; blocked: binding of SDP051 to cell-surface Cad-11; MFI
Description: Cells were the stained on ice for 45 minutes with increasing concentration of either the 37-mer Cad-11 peptide or Cad-7, Cad-8, Cad-9, Cad-18, Cad-20, or Cad-24 peptides with […] SDP051. After staining the cells were washed twice with Hanks balanced salt solution (HBSS) containing 1% fetal bovine solution (FBS), resuspended and then stained with a 100 μl of goat anti-mouse IgG-PE (100× dilution) on ice for 30′ protected from light. After staining the cells with the secondary agent, cells were washed twice with HBSS with 1% FBS, resuspended and fixed in 200 μl of 2% formaldehyde in HBSS with 1% FBS and then analyzed with a BD FACSCALIBUR™ machine.

IC50 [2] [µg/mL] | binding result [6] | binding result [8] | Binder | also measured
0.99 | no binding (tested: 5000 ng/ml) | – | B1 | koff [1]: 0.0043 s⁻¹; Kd [3]: 0.379 nM; kon [4]: 613000 M⁻¹ s⁻¹; binding result [5]: no binding (tested: 5000 ng/ml); IC50 (read off the curve) [7]: ~0.2 µg/mL
0.33 | no binding (tested: 5000 ng/ml) | – | B2 | –
0.47 | no binding (tested: 5000 ng/ml) | – | B3 | –
– | – | no binding (tested: about 80000 ng/ml) | B4 | –
– | – | no binding (tested: 3000 ng/ml) | B5 | –
